# From paper PMC2821926, “Carboxy Terminal Tail of Polycystin-1 Regulates Localization of TSC2 to Repress mTOR” (PLoS ONE, 2010)
# T1: GST-14-3-3β (UniProt P31946 1-246)
# T1 construct: 14-3-3 beta; also called 14-3-3 proteins; source: E. coli DH5α (pGEX), batch-purified on glutathione Sepharose 4B beads
# T1 sequence (looked up): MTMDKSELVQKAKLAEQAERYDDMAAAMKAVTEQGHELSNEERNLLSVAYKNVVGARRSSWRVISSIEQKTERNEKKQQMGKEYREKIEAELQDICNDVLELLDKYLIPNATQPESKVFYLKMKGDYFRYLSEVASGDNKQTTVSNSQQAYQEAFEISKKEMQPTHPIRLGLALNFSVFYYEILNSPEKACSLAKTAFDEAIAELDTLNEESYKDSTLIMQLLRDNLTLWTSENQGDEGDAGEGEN
# B1: tuberous sclerosis complex 2 (TSC2) tumor suppressor (natural protein)
# chain: not shown
# notes: TSC2 (tuberin), endogenous in HEK-293 cells; also called tuberin; source: endogenous, HEK-293 lysate
# Biological target: T1, GST-14-3-3β
# Assay: pull-down; 10 µg GST-14-3-3β on glutathione Sepharose 4B beads mixed with 300 µg protein of lysates of HEK-293 cells expressing CD44-CP1 or Flag-CP1, overnight at 4°C; washed thrice in PBS; immunoblot with anti-TSC2
# Settings: one partner purified
binder,measurement,value
B1,fold enhanced binding in Flag-CP1 expressing cells relative to cells expressing CD44-CP1,~2 fold
